According to patent publication US8846340B2, “Carbohydrate-binding modules of a new family” (Novozymes A/S, priority 2003, dated 2014):

Tests used:
[1] = Binding of CBMX to Avicel (A280 of supernatant); conditions: for A280: Absorbance at 280 nm of 200 μl supernatant, absorbance of buffer and Avicel subtracted: 4 hours, room temperature, 20 mM Tris pH 7.5
Method: The carbohydrate-binding domain with affinity for Avicel® and purified as described in Example 2 (CBMX) was studied further. 50 μl purified CBMX was mixed with 500 μl 20 mM Tris, pH 7.5 containing varying amount of Avicel® (0-100 mg/ml) in an Eppendorf tube. After 4 hours incubation at room temperature with agitation, the samples were centrifuged. 200 μl supernatant was transferred to the well of a microtiter plate (Costar, UV plate) and absorbance read at 280 nm on a microtiter plate reader (SpectraMax® Plus, Molecular Devices).

[2] = Binding of CBMX to PASC (A280 of supernatant); conditions: 4 hours, room temperature; for A280: Absorbance at 280 nm of 200 μl supernatant, absorbance of buffer subtracted: 20 mM Tris pH 7.5
Method: A similar binding study was performed with PASO (Phosphoric Acid Swollen Cellulose: To 5 g Avicel® moistened with water 150 ml ice-cold 85 ortho-phosphoric acid is added. After 1 hour stirring on ice bath, 500 ml cold acetone is added. The suspension is filtered and washed, first with acetone and then with water). 50 μl purified CBMX was mixed with 500 μl 20 mM Tris, pH 7.5 containing varying amount of PASO (0-10 mg/ml) in an Eppendorf tube. Samples were incubated 4 hours at room temperature with agitation. After centrifugation, 200 μl supernatant was transferred to the well of a microtiter plate and absorbance read at 280 nm.

[3] = Competition binding assay with CBMX and Avicel, references without soluble carbohydrate; conditions: 4 hours
Method: (§1) Affinity of CBMX for a number of soluble carbohydrates was tested in a competition assay by mixing 100 μl CBMX with both Avicel® (400 μl 50 mg/ml in 20 mM Tris, pH 7.5) and the soluble carbohydrate (dissolved in 500 μl 20 mM Tris, pH 7.5). As references, samples without CBMX or soluble carbohydrate added were used. If CBMX has affinity for the soluble carbohydrate it should be able to keep CBMX in solution which can be measured as increase in absorbance at 280 nm compared to sample without soluble carbohydrate added. After 4 hours incubation at room temperature with agitation, samples were centrifuged and absorbance at 280 nm was read using 200 μl supernatant in the well of a microtiter UV plate. Tested soluble carbohydrates were barley β-glucan (Megazyme, low viscosity), lichenan (Megazyme, Icelandic moss), CMC (carboxymethyl cellulose 7LF, Hercules, USA), Xyloglucan (Megazyme, amyloid, from tamarind seed), lupin galactan (Megazyme) and Locust bean gum (Sigma, G-0753).

[4] = Competition binding assay with CBMX, Avicel and soluble carbohydrate; design: species or system barley; conditions: beta-glucan
Method: as §1

[5] = as above; design: species or system Icelandic moss; conditions: lichenan
Method: as §1

[6] = as above; design: species or system tamarind; conditions: xyloglucan
Method: as §1

[7] = as above; design: species or system lupin; conditions: galactan
Method: as §1

[8] = as above; conditions: for CBMX kept in solution by soluble carbohydrate (in words): competition with Avicel
Method: as §1

A280: Absorbance at 280 nm of 200 μl supernatant, absorbance of buffer and Avicel subtracted ([1]; Avicel 0.0 mg/ml): 0.0768
A280: Absorbance at 280 nm of 200 μl supernatant, absorbance of buffer and Avicel subtracted ([1]; Avicel 0.391 mg/ml): 0.0777
A280: Absorbance at 280 nm of 200 μl supernatant, absorbance of buffer and Avicel subtracted ([1]; Avicel 0.781 mg/ml): 0.0808
A280: Absorbance at 280 nm of 200 μl supernatant, absorbance of buffer and Avicel subtracted ([1]; Avicel 1.563 mg/ml): 0.0799
A280: Absorbance at 280 nm of 200 μl supernatant, absorbance of buffer and Avicel subtracted ([1]; Avicel 3.125 mg/ml): 0.0729
A280: Absorbance at 280 nm of 200 μl supernatant, absorbance of buffer and Avicel subtracted ([1]; Avicel 6.25 mg/ml): 0.0637
A280: Absorbance at 280 nm of 200 μl supernatant, absorbance of buffer and Avicel subtracted ([1]; Avicel 12.5 mg/ml): 0.0540
A280: Absorbance at 280 nm of 200 μl supernatant, absorbance of buffer and Avicel subtracted ([1]; Avicel 25 mg/ml): 0.0326
A280: Absorbance at 280 nm of 200 μl supernatant, absorbance of buffer and Avicel subtracted ([1]; Avicel 50 mg/ml): 0.0185
A280: Absorbance at 280 nm of 200 μl supernatant, absorbance of buffer and Avicel subtracted ([1]; Avicel 100 mg/ml): 0.0095
Binding of the protein to Avicel (in words) ([1]; highest concentrations of Avicel, 4 hours incubation): the large majority of the protein binds
Affinity for Avicel (in words) ([1]; summary statement): have affinity for Avicel®
Affinity for PASC (in words) ([2]; 0-10 mg/ml): has affinity for PASO
A280: Absorbance at 280 nm of 200 μl supernatant, absorbance of buffer subtracted ([2]; PASC 0.0 mg/ml): 0.0753
A280: Absorbance at 280 nm of 200 μl supernatant, absorbance of buffer subtracted ([2]; PASC 0.625 mg/ml): 0.0682
A280: Absorbance at 280 nm of 200 μl supernatant, absorbance of buffer subtracted ([2]; PASC 1.25 mg/ml): 0.0710
A280: Absorbance at 280 nm of 200 μl supernatant, absorbance of buffer subtracted ([2]; PASC 2.5 mg/ml): 0.0618
A280: Absorbance at 280 nm of 200 μl supernatant, absorbance of buffer subtracted ([2]; PASC 5 mg/ml): 0.0512
A280: Absorbance at 280 nm of 200 μl supernatant, absorbance of buffer subtracted ([2]; PASC 10 mg/ml): 0.0471
Difference in A280 between samples with and without CBMX added ([3]; None - Only Avicel (20 mg/ml) and CBMX, no soluble carbohydrate): 0.018
Difference in A280 between samples with and without CBMX added ([3]; None - Only CBMX (no Avicel, no soluble carbohydrate)): 0.108
Affinity of CBMX for soluble carbohydrate (in words) [4]: affinity
CBMX kept in solution by soluble carbohydrate (in words) ([4]; competition with Avicel): keep almost all CBMX in solution
Affinity of CBMX for soluble carbohydrate (in words) [6]: to some extent
CBMX kept in solution by soluble carbohydrate (in words) ([6]; competition with Avicel): about half of the CBMX in solution
Affinity of CBMX for soluble carbohydrate (in words) [7]: to some extent
CBMX kept in solution by soluble carbohydrate (in words) ([7]; competition with Avicel): about half of the CBMX in solution
Affinity of CBMX for soluble carbohydrate (in words) ([8]; CMC): affinity
CBMX kept in solution by soluble carbohydrate (in words) ([8]; CMC): keep almost all CBMX in solution
Affinity of CBMX for soluble carbohydrate (in words) ([8]; locust bean gum): affinity
CBMX kept in solution by soluble carbohydrate (in words) ([8]; locust bean gum): keeps the majority in solution
B1: CBMX: Carbohydrate-binding module of Pseudoplectania nigrella GH61 enzyme (positions 34-174 of SEQ ID NO:2), expressed in Aspergillus oryzae, purified on Avicel (protein, listed as Pseudoplectania nigrella)
chain: SSGTSNDKAVASSSIAAVDPVTSSVVASVQVPNFTATDVPTFTATDIPTFTATDVPIFTKKPQQPSTLLTRTRTHASVSFVAKPSAFIPKPSASTIPSKPKTPEEVNKCLDAVNACITQAQSSIGGVVNFEPCESQRALCY
Affinity of CBMX for soluble carbohydrate (in words) [5]: no affinity for lichenan could be detected
CBMX kept in solution by soluble carbohydrate (in words) ([5]; competition with Avicel): does not result in any increase in CBMX in solution
